The text below walks through data of article PMC10442857, “Cellular Uptake of a Fluorescent Ligand Reveals Ghrelin O-Acyltransferase Interacts with Extracellular Peptides and Exhibits Unexpected Localization for a Secretory Pathway Enzyme” (ACS Chemical Biology, 2023).

In assay [1] the target is human ghrelin O-acyltransferase (hGOAT) of the hGOAT inhibition assays (human) (UniProt Q96T53).
For assay [2], the target named is T1, GHSR (GHS-R1a) (Homo sapiens, UniProt Q92847).
T1 construct: expressed in transfected cells; host or cells: HEK 293 cells transfected with GHS-R1a (membrane suspension)
Put plainly: biochemical. In kind it is binding. Conditions: lower limit from test at 100 µM; read-out: IC50 against GHSR. As to the method: Peptide binding affinity for the ghrelin receptor was determined using a competitive radioligand-displacement binding assay,[22] with details provided in the Supporting Information. […]
GHSR receptor binding assays. Peptide binding affinity for the ghrelin receptor was determined using a competitive radioligand-displacement binding assay.1 Assays were performed using GHS-R1a transfected HEK 293 cells as the receptor source and human His[125I]-ghrelin(1−28) (PerkinElmer Inc. NEX388010UC ) as the radioligand. Human ghrelin(1−28) was used as a reference to ensure the validity of the results. A suspension of membrane from HEK 293/GHS-R1a cells (100,000 cells per assay tube) were incubated with ghrelin(1−8) peptide analogues (at […]
ghrelin (15 pM per assay tube) in binding buffer (25 mM HEPES, 5 mM magnesium chloride, 1 mM calcium chloride, 2.5 mM EDTA, and 0.4% BSA, pH 7.4). The resulting suspension was incubated for 20 min under shaking (550 rpm) at 37 °C. Unbound [ 125I]-ghrelin was removed and the amount of [ 125I]-ghrelin bound to the membranes was measured by γ counter. IC 50 values were determined by nonlinear regression analysis to fit a four-parameter dose−response curve using Prism 6 (version 6.0c). All binding assays were performed in triplicate. […]

The subject of assay [3] is 22Rv1 cells. Put plainly: GOAT ligand labeling and imaging in 22Rv1 prostate cancer cells. In kind it is cell-based, human. Conditions: 5 μM ligand 15 with 40 μM ligand 12, 30 min RT, p < 0.05. The procedure:
Prostate cancer (PCa) cells LNCaP (ATCC, CRL-1740) and 22Rv1 (ATCC, CRL-2505) were maintained in a 75 mL vented tissue culture flask (Celltreat) at 37 °C with 5% CO2 in complete 1× RPMI (Roswell Park Memorial Institute) media supplemented with 10% FBS and 1% (v/v) penicillin-streptomycin (Mediatech). Cell lines were passaged upon reaching 70% confluency (∼2–3 days). For microscopy studies, PCa cells were plated in 2 mL of complete 1× RPMI in a six-well plate (Corning) containing sterile 12 mm poly-L-lysine coated glass coverslips (Neuvitro, GG-12-PDL) in each well. The cells were allowed to adhere and reach 70% confluence on the coverslips prior to labeling.
Upon reaching confluency, coverslips with attached PCa cells were treated with ligands at the indicated concentration for 30 min at RT (unless otherwise stated). Cells were washed 3× with 1× phosphate-buffered saline (PBS) (Cellgro) and then fixed for immunofluorescence staining as described above. For ligand competition experiments, cells were incubated with 5 μM ligand 15 alone, 5 μM ligand 15 with 40 μM ligand 12, or PBS alone for 30 min at RT. […]
The fluorescence range of intensity was adjusted identically for each image series. […] Total cell fluorescence was determined by calculating the integrated density of mean gray value in a cell area compared to background as shown in eqs 4 and 5. […]

The target of assay [4] is T2, human ghrelin O-acyltransferase (hGOAT) of the hGOAT inhibition assays (human, UniProt Q96T53 1-435).
T2 sequence (looked up): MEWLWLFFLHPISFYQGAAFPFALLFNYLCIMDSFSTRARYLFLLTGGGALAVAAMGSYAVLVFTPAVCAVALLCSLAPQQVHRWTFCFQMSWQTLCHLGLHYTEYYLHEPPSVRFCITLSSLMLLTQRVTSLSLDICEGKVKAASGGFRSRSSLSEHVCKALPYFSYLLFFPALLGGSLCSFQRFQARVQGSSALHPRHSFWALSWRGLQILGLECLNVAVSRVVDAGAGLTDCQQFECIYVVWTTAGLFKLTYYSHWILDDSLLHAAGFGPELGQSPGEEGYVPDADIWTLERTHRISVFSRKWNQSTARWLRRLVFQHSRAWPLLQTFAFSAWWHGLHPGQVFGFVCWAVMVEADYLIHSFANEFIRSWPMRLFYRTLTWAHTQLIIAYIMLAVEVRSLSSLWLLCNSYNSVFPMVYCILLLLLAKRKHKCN
Put plainly: cell-based or functional assay.

Peptide text beside a SMILES is read from it.

For orientation: IC50 means the concentration at which inhibition is half-maximal.

Molecule “ligand 15, H-GS-Dap-Nal-1-LSPTK(SulfoCy5)-NH2 (peptide)” had an inhibition of hGOAT activity by ligand 15 (IC50) in assay [1] of 17 nM. Take `CC(C)C[C@H](NC(=O)[C@H](Cc1cccc2ccccc12)NC(=O)[C@H](CN)NC(=O)[C@H](CO)NC(=O)CN)C(=O)N[C@@H](CO)C(=O)N1CCC[C@H]1C(=O)N[C@H](C(N)=O)[C@@H](C)O` [ligand 12, H-GS-Dap-Nal-1-LSPT-NH2] (HELM PEPTIDE1{G.S.[NC[C@H](N[*:1])C(=O)[*:2]].[O=C([C@H](Cc1cccc2ccccc12)N[*:1])[*:2]].L.S.P.T.[am]}$$$$V2.0): in assay [2], the IC50 is no less than 100000 nM. Moreover, the “effect of unlabeled competitor on ligand 15 internalization (total cell fluorescence)” value in assay [3] is given as “significant reduction of ligand 15 internalization”.

B1: ligand 12, H-GS-Dap-Nal-1-LSPT-NH2 (peptide)
chain: GSXXLSPT
HELM: PEPTIDE1{G.S.[NC[C@H](N[*:1])C(=O)[*:2]].[O=C([C@H](Cc1cccc2ccccc12)N[*:1])[*:2]].L.S.P.T.[am]}$$$$V2.0
SMILES: CC(C)C[C@H](NC(=O)[C@H](Cc1cccc2ccccc12)NC(=O)[C@H](CN)NC(=O)[C@H](CO)NC(=O)CN)C(=O)N[C@@H](CO)C(=O)N1CCC[C@H]1C(=O)N[C@H](C(N)=O)[C@@H](C)O
Consider B1, for which the “inhibition of hGOAT activity (IC50 against hGOAT)” value (“inhibition … (IC50 against hGOAT)” below) in assay [4] was 6 nM.

B2: ligand 5, H-Inp-S-Dap-FLSPY-NH2 (peptide)
chain: XSXFLSPY
HELM: PEPTIDE1{[O=C(C1CCNCC1)[*:2]].S.[NC[C@H](N[*:1])C(=O)[*:2]].F.L.S.P.Y.[am]}$$$$V2.0
SMILES: CC(C)C[C@H](NC(=O)[C@H](Cc1ccccc1)NC(=O)[C@H](CN)NC(=O)[C@H](CO)NC(=O)C1CCNCC1)C(=O)N[C@@H](CO)C(=O)N1CCC[C@H]1C(=O)N[C@@H](Cc1ccc(O)cc1)C(N)=O
As to B2, the “inhibition … (IC50 against hGOAT)” value in assay [4] was greater than 100000 nM.

B3: ligand 4, H-Aib-S-Dap-FLSPY-NH2 (peptide)
chain: XSXFLSPY
HELM: PEPTIDE1{[Aib].S.[NC[C@H](N[*:1])C(=O)[*:2]].F.L.S.P.Y.[am]}$$$$V2.0
SMILES: CC(C)C[C@H](NC(=O)[C@H](Cc1ccccc1)NC(=O)[C@H](CN)NC(=O)[C@H](CO)NC(=O)C(C)(C)N)C(=O)N[C@@H](CO)C(=O)N1CCC[C@H]1C(=O)N[C@@H](Cc1ccc(O)cc1)C(N)=O
For the molecule B3, in assay [4], the “inhibition … (IC50 against hGOAT)” value was greater than 100000 nM.
